The source of these data is patent US20110207116A1 (University of California, published 2011).

The chains are these.
B1: PhyB(1-908)-10aaLinker-mCherry-Kras4BCT (other)
chain: MVSGVGGSGGGRGGGRGGEEEPSSSHTPNNRRGGEQAQSSGTKSLRPRSNTESMSKAIQQYTVDARLHAVFEQSGESGKSFDYSQSLKTTTYGSSVPEQQITAYLSRIQRGGYIQPFGCMIAVDESSFRIIGYSENAREMLGIMPQSVPTLEKPEILAMGTDVRSLFTSSSSILLERAFVAREITLLNPVWIHSKNTGKPFYAILHRIDVGVVIDLEPARTEDPALSIAGAVQSQKLAVRAISQLQALPGGDIKLLCDTVVESVRDLTGYDRVMVYKFHEDEHGEVVAESKRDDLEPYIGLHYPATDIPQASRFLFKQNRVRMIVDCNATPVLVVQDDRLTQSMCLVGSTLRAPHGCHSQYMANMGSIASLAMAVIINGNEDDGSNVASGRSSMRLWGLVVCHHTSSRCIPFPLRYACEFLMQAFGLQLNMELQLALQMSEKRVLRTQTLLCDMLLRDSPAGIVTQSPSIMDLVKCDGAAFLYHGKYYPLGVAPSEVQIKDVVEWLLANHADSTGLSTDSLGDAGYPGAAALGDAVCGMAVAYITKRDFLFWFRSHTAKEIKWGGAKHHPEDKDDGQRMHPRSSFQAFLEVVKSRSQPWETAEMDAIHSLQLILRDSFKESEAAMNSKVVDGVVQPCRDMAGEQGIDELGAVAREMVRLIETATVPIFAVDAGGCINGWNAKIAELTGLSVEEAMGKSLVSDLIYKENEATVNKLLSRALRGDEEKNVEVKLKTFSPELQGKAVFVVVNACSSKDYLNNIVGVCFVGQDVTSQKIVMDKFINIQGDYKAIVHSPNPLIPPIFAADENTCCLEWNMAMEKLTGWSRSEVIGKMIVGEVFGSCCMLKGPDALTKFMIVLHNAIGGQDTDKFPFPFFDRNGKFVQALLTANKRVSLEGKVIGAFCFLQIPSDSAGSAGSAGSKTKCVIM
modifications: phycocyanobilin (PCB) chromophore covalently bound; C-terminal CaaX prenylation sequence
notes: Expressed in NIH3T3 cells, localized to the plasma membrane; also called pAL149; PhyB908; not shown: mCherry fluorescent protein, amplified from a vector

Test [1] has as its target T1, PIF6APB-mYFP-20aaLinker-Rac1(Q61L)ΔCT (Arabidopsis thaliana, UniProt P63000 1-188).
T1 construct: also called pAL105; Rac1(Q61L, no caax); not shown: mYFP: EYFP with monomerizing A206K mutation
Description: global light-activated membrane translocation in NIH3T3 cells, red light.

Test [2] concerns the target B1. In words: YFP membrane translocation in NIH3T3 cells, confocal microscopy.
The target in test [3] is T2, PhyB(1-650)-10aaLinker-mCherry-Kras4BCT (Arabidopsis thaliana, UniProt P14713 1-650, phycocyanobilin (PCB) chromophore covalently bound; C-terminal CaaX prenylation sequence).
T2 construct: Expressed in NIH3T3 cells at the plasma membrane; also called pAL117; PhyB-NT; not shown: mCherry fluorescent protein, amplified from a vector
T2 sequence: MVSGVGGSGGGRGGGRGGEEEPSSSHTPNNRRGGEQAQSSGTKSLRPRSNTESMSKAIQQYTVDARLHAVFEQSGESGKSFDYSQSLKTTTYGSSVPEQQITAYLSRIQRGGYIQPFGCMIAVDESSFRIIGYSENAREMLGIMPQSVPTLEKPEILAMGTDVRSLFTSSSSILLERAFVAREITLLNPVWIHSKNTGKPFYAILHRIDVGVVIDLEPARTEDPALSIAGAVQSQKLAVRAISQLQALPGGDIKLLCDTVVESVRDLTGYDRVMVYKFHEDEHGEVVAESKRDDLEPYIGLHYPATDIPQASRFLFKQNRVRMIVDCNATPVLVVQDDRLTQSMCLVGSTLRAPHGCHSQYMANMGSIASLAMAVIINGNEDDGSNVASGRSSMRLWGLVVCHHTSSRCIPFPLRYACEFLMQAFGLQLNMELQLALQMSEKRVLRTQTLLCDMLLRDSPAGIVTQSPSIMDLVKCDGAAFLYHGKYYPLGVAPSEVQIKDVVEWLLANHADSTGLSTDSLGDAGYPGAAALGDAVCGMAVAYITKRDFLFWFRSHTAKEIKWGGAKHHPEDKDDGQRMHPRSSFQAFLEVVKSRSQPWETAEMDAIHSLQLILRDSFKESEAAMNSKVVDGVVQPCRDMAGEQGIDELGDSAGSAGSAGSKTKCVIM
Described as above.

For test [4], the target named is T3, PhyB(1-450)-10aaLinker-mCherry-Kras4BCT (Arabidopsis thaliana, UniProt P14713 1-450, phycocyanobilin (PCB) chromophore covalently bound; C-terminal CaaX prenylation sequence).
T3 construct: Expressed in NIH3T3 cells at the plasma membrane; also called pAL161; PhyB-CBD; not shown: mCherry fluorescent protein, amplified from a vector
T3 sequence: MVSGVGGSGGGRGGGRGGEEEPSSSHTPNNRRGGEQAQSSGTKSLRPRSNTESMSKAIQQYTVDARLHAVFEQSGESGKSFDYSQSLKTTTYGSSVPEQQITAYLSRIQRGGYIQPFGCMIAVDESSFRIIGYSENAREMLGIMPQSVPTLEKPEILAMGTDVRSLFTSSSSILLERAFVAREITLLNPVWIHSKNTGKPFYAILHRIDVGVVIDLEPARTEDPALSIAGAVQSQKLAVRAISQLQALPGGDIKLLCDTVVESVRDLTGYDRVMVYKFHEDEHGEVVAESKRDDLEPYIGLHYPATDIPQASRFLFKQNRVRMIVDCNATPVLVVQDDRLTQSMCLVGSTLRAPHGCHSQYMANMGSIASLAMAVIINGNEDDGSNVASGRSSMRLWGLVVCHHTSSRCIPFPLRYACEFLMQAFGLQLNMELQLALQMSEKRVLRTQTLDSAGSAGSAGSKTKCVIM
The description is as above.

Test [5] deals with T4, PhyB(1-650)-Gal4DD-10aaLinker-mCherry-Kras4BCT (Arabidopsis thaliana; Saccharomyces …, UniProt P04386 50-106, phycocyanobilin (PCB) chromophore covalently bound; C-terminal CaaX prenylation sequence).
T4 construct: also called pAL148; not shown: mCherry fluorescent protein, amplified from a vector
Described as above.

The target of test [6] is T5, PhyBFL-10aaLinker-mCherry-Kras4BCT (Arabidopsis thaliana, UniProt P14713 1-1172, phycocyanobilin (PCB) chromophore covalently bound; C-terminal CaaX prenylation sequence).
T5 construct: also called pAL162; PhyB full length; not shown: mCherry fluorescent protein, amplified from a vector
T5 sequence: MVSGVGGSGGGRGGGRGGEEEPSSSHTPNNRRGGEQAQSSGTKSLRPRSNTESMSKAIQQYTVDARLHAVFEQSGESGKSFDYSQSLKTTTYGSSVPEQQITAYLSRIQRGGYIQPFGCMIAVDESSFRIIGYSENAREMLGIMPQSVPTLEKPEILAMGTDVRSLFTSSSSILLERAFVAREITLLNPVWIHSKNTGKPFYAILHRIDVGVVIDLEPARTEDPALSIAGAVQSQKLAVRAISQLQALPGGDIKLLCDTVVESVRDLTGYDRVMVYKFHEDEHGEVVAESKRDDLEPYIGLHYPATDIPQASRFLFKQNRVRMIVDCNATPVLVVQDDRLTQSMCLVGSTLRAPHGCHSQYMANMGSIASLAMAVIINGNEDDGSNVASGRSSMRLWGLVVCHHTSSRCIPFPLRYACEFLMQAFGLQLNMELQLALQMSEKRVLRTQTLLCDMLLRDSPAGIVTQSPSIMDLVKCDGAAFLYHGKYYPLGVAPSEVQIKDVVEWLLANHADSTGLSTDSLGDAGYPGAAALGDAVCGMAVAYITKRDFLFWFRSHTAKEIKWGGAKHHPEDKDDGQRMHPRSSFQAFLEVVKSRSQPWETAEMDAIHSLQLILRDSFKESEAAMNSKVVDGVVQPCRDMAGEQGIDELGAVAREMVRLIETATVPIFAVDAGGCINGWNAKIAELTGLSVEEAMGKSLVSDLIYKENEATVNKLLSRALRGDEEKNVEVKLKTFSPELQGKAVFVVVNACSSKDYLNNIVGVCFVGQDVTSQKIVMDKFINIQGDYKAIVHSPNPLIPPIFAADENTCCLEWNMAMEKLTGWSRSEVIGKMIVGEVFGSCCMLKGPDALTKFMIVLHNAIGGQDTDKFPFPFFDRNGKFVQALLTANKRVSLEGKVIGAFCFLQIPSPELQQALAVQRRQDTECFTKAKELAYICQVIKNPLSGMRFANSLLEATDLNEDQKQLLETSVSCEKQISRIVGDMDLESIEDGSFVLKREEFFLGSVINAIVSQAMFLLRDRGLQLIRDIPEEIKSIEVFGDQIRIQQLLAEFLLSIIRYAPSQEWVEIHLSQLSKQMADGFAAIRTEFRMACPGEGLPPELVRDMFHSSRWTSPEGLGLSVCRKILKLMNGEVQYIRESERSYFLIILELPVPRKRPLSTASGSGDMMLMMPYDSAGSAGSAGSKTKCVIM
The description is as above.

With B1, the binding result in test [1] is recorded as “binds”.

B2: PIF3APB-mYFP (other)
chain: MPLFELFRLTKAKLESAQDRNPSPPVDEVVELVWENGQISTQSQSSRSRNIPPPQANSSRAREIGNGSKTTMVDEIPMSVPSLMTGLSQDDDFVPWLNHH
notes: also called pAL100; PIF3-100NT; not shown: mYFP: EYFP with monomerizing A206K mutation
Turning to B2, the binding result in test [2], in test [3], in test [4], in test [5] and in test [6] was “no binding” in each case.
